Data published in PMC4689616 (Nature cell biology, 2015).
Each block holds one binder with its values, some of them ahead of it.

How the values were obtained:
TTC7B(9-843) = target: T1, TTC7B(9-843) (UniProt Q86TV6 9-843); assay: SEC
T1 sequence: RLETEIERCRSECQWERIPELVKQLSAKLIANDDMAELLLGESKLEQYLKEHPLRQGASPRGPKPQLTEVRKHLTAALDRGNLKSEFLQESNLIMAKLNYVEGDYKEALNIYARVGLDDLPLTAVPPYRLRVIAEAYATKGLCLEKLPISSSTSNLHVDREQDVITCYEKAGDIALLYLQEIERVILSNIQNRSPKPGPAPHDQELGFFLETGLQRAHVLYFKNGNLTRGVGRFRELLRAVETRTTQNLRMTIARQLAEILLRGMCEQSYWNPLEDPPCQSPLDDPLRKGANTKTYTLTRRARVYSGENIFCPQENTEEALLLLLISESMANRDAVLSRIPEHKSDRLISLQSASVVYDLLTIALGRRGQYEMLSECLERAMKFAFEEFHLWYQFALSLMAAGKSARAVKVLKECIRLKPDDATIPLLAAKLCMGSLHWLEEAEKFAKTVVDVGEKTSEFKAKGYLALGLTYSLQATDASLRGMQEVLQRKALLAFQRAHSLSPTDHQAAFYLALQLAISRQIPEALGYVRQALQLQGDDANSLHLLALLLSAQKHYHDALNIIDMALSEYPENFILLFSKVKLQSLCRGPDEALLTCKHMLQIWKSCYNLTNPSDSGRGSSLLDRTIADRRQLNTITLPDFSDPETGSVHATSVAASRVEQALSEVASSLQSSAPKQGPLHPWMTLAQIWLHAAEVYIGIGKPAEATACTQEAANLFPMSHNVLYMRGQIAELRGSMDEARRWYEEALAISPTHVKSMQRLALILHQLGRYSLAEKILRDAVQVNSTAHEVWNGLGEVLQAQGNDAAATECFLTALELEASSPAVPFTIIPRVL

[1] = target: 3xFLAG-PI4KIIIα (wild-type) (UniProt P42356-1 1-2102); assay: pull-down

binding result (TTC7B(9-843)): binds
B1: FAM126A(2-308) (domain or fragment)
chain: FTSEKGVVEEWLSEFKTLPETSLPNYATNLKDKSSLVSSLYKVIQEPQSELLEPVCHQLFEFYRSGEEQLLQFTLQFLPELIWCYLAVSASRNVHSSGCIEALLLGVYNLEIVDKQGHTKVLSFTIPSLSKPSVYHEPSSIGSMALTESALSQHGLSKVVYSGPHPQREMLTAQNRFEVLTFLLLCYNAALTYMPSVSLQSLCQICSRICVCGYPRQHVRKYKGISSRIPVSSGFMVQMLTGIYFAFYNGEWDLAQKALDDIIYRAQLELYPEPLLVANAIKASLPHGPMKSNKEGTRCIQVEITPT

binding result [1]: binds
B2: GST-FAM126A-N/TTC7B dimer (complex)
chain 1: B1 chain
chain 2: T1 sequence
